From patent US20090188009A1, “HEAT SHOCK RNA FROM VARIOUS SPECIES AND ITS USE IN ACTIVATION OF HEAT SHOCK TRANSCRIPTION FACTOR, IN TREATMENT OF VARIOUS DISEASES IN ANIMALS AND IN GENERATION OF STRESS-RESISTANT PLANTS” (New York University, published 2009) come the findings set out here.

Data set [1] deals with purified recombinant mouse HSF1 (heat shock transcription factor 1), released from GST-HSF1 by thrombin cleavage (mouse) (UniProt P38532). Put plainly: cell-based or functional assay.
Another data set addresses HSF1 (Mus musculus, UniProt P38532 P38532:1-525). Nature of the data set: EMSA; trimeric HSF1 activated by eEF1A plus HSR1 (BHK, HeLa or T3 sense transcript); about 5% of HSF1 activated; 1.5 mM MgCl2, 2 mM DTT. To be noted: tags: expressed as N-terminal GST fusion from pGex-2T in E. coli, thrombin cleaved; chain copies: 3; label: 32P end. As to the method:
cDNAs of HSR1 were cloned from both HeLa and BHK cells (see Methods), and the coding strand was identified in a functional assay (FIG. 5A). As shown in the upper panel of FIG. 5A, the sense (T3) and antisense (T7) HSR1s were transcribed in vitro by T3 and T7 RNA polymerases, respectively, from PCR fragments carrying T3 or T7 promoters on each side of HSR1. The resulting synthetic RNAs were tested in the minimal HSF1 activating system (FIG. 5A, lower panel). For the reconstitution experiment shown in FIG. 5A, recombinant mouse HSF1 was used along with eEF1A purified from rat liver (as described above). HSR1 isolated from heat-shocked BHK or HeLa cells (lanes 7, 8) and HSR1-T3 (lane 10) activated HSF when added together with purified eEF1A. However, neither component alone was capable of activating HSF1 (lanes 2-6). The slight stimulating effect of isolated eEF1A (lane 2) on HSF1 activation results from the residual amount of co-purified HSR1, and could be eliminated by RNAse A treatment. In FIG. 5A, quantitation of HSF1 activation is presented as the fold increase relative to a background control. Under these conditions, about 5% of the total HSF1 was activated.
On the technique in general: In EMSA bound probe runs differently from free probe, usually more slowly.

Sequence of purified recombinant mouse HSF1 (heat shock transcription factor 1), released from GST-HSF1 by thrombin cleavage (mouse) (P38532 other isoform, or with tags, fused parts or gaps limits assumed): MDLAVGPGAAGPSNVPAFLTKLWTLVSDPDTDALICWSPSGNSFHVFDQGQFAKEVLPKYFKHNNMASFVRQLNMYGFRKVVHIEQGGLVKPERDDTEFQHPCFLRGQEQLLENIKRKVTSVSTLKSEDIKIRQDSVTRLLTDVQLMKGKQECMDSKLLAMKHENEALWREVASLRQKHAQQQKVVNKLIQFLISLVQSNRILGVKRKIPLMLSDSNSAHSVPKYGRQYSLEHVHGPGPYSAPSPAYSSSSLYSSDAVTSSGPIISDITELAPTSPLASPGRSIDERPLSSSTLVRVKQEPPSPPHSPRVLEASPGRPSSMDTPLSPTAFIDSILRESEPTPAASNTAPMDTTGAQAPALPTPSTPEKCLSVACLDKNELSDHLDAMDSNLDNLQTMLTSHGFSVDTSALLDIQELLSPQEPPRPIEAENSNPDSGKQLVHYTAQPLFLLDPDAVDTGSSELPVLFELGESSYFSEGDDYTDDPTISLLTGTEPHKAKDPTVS
Sequence of HSF1 (P38532 whole entry, the tested form may be a part, one chain of several): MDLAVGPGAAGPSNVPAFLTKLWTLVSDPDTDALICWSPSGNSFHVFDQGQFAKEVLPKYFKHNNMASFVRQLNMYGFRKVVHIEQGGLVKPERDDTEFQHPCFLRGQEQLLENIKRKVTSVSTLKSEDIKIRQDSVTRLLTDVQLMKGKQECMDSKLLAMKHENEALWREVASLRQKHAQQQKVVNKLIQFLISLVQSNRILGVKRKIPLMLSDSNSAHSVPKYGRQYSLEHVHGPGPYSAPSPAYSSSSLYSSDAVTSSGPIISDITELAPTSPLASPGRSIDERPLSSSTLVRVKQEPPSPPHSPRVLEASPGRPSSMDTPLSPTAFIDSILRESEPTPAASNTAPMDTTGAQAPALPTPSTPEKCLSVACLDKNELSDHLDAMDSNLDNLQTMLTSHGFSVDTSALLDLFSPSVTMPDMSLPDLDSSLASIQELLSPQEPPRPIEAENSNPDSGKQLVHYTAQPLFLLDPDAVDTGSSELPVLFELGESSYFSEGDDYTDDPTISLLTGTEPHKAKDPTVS

With “eEF1A purified from rat liver (from UniProt P62630 2-462)”, the HSF1 activation (DNA binding to HSE, EMSA) in the reconstituted system in data set [1] stood at 5%.

B1: HSE oligonucleotide (dsDNA)
DNA 1: GCCTCGAATGTTCGCGAAGTTTCG
DNA 2: CGAAACTTCGCGAACATTCGAGGC
As to B1, in the data set with HSF1, the binding result is “binds”.
